This passage reports binding signal results from paper PMC8321654, “Heterogeneous nuclear ribonucleoprotein E1 binds polycytosine DNA and monitors genome integrity”.

For this series, the target named is GST-hnRNP E1 (UniProt Q15365 1-356). Put plainly: EMSA; 25 mM Tris-HCl pH 7.6, 1 mM EDTA, 2% glycerol, 10 mM beta-ME, 50 ug/ml BSA, with or without 1.5 ng denatured E. coli DNA; 20 fmol probe in 50 ul; RT 15 min; 8-10% PAGE in 1x TBE. To be noted: protein: recombinant; tags: GST; label: 5'-32P. In general terms: In EMSA bound probe runs differently from free probe, usually more slowly.
Sequence of GST-hnRNP E1 (Q15365 whole entry): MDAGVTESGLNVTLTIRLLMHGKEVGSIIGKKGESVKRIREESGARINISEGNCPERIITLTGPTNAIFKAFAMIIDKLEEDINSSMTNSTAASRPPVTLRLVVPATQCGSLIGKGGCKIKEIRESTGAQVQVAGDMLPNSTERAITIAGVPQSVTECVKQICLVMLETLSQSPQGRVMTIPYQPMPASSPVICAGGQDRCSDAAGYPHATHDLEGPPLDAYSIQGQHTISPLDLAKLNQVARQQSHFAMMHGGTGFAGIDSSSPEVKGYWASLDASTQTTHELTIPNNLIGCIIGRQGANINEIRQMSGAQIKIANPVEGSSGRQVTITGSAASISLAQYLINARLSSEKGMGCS

As to AAUUGCUACCCAAUGCCUGGCCCAAGGGCAUUCCCAAAGCUUA (ssRNA) [BAT RNA consensus (43 nt)], the binding signal was 11 fold molar excess protein for 50% shift.
